Test system: Reverse transcriptase (RT)
Assay: inhibition
Conditions: RNA strand 3' phosphate; DNA strand 3' dideoxy; 37 C; activity fully released at 55 C

TCGAACGGGACGGCTGGCTGTGTGTGT / CCAGCCGTCC [analogs 6+7 (RNA/DNA)]
activity (% residual activity): 16

— patent US20230227833
